Results reported in PMC5736104 (Nature, 2017).

Target: the molecule itself
Test: cryo-EM structure

B1: Hrd1, truncated after the RING finger domain (amino acids 1-407) (domain or fragment, S. cerevisiae, UniProt Q08109 1-407, looked up)
chain: MVPENRRKQLAIFVVVTYLLTFYCVYSATKTSVSFLQVTLKLNEGFNLMVLSIFILLNSTLLWQLLTKLLFGELRLIEHEHIFERLPFTIINTLFMSSLFHERYFFTVAFFGLLLLYLKVFHWILKDRLEALLQSINDSTTMKTLIFSRFSFNLVLLAVVDYQIITRCISSIYTNQKSDIESTSLYLIQVMEFTMLLIDLLNLFLQTCLNFWEFYRSQQSLSNENNHIVHGDPTDENTVESDQSQPVLNDDDDDDDDDRQFTGLEGKFMYEKAIDVFTRFLKTALHLSMLIPFRMPMMLLKDVVWDILALYQSGTSLWKIWRNNKQLDDTLVTVTVEQLQNSANDDNICIICMDELIHSPNQQTWKNKNKKPKRLPCGHILHLSCLKNWMERSQTCPICRLPVFDEK
For B1, the “stoichiometry N” value was 2.
